According to publication PMC4107134:

Legend:
[1] = biological target: integrin αIIbΔ996β3 (αIIb tail truncated after GFFKR) (UniProt P05106); assay: pull-down
[2] = biological target: integrin αIIbβ3, wild type (UniProt P05106); assay: pull-down

Kd [1]: 0.206 µM | Kd [2]: 0.213 µM
Substance: talin head domain (THD, talin residues 1-433), purified (from UniProt P26039 1-433) (domain or fragment)
